Literature values as cited in article PMC5494978.

Biological target: Bfd (Pseudomonas aeruginosa) (UniProt Q9HY80)
UniProt Q9HY80, sequence (Q9HY80 whole entry): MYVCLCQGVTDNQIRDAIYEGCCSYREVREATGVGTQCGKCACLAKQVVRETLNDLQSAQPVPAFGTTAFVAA

For BfrB (from UniProt Q9HY79), which Kd is on record?
Its Kd is 3000 nM.
